Data on two molecules can be found in patent KR20210010236A (dated 2021).

The target in assay [1] is T1, Full-length(FL)-WRS, human tryptophanyl-tRNA synthetase (NP_004175.2) (human, UniProt P23381 2-471).
T1 sequence: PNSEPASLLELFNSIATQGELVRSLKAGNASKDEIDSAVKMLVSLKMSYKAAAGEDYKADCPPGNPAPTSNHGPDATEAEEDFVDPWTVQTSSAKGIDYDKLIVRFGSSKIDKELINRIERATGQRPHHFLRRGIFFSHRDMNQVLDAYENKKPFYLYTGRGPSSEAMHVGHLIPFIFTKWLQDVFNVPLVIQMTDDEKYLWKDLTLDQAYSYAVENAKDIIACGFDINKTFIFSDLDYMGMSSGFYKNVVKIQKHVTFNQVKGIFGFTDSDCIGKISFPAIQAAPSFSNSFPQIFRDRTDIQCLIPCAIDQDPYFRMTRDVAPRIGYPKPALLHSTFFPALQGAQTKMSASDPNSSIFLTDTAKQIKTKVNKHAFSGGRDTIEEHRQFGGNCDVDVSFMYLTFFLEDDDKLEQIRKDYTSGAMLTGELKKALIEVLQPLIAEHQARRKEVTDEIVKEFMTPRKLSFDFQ
Briefly: cell-based or functional assay.

Assay [2] concerns the target T1, Full-length(FL)-WRS, human …. In words: SPR (Biacore 2000), FL-WRS immobilised on a CM5 chip, antibody 6.25-100 nM as analyte.
The target is the same in assay [3]. In words: western blot on HeLa and HCT116 cell lysates, purified scFv detected with anti-HA-HRP.

B1: 3C6 IgG 단일클론 항체 (anti-WRS(3C6) IgG) (antibody, V domains shown)
VH: EVQLLESGGGLVQPGGSLRLSCAASGFTFSSYDMSWVRQAPGKGLEWVSAISSGGSSIYYADSVKGRFTISRDNSKNTLYLQMNSLRAEDTAVYYCARDVAWDMLGDFDYWGQGTLVTVSS
VL: QSVLTQPPSASGTPGQRVTISCTGSSSNIGSNYVYWYQQLPGTAPKLLIYANSHRPSGVPDRFSGSKSGTSASLAISGLRSEDEADYYCGAWDDSLSAYVFGGGTKLTV
notes: The variable regions of the 3C6 scFv were converted to IgG (pcDNA3.4 vectors, expressed in HEK293F, purified on protein A); also called 3C6 IgG 항체; WRS(3C6) 항체
For B1, the “EC 50 (inhibition of human WRS-induced TNF-α secretion by differentiated THP-1 macrophages)” value in assay [1] was 0.035 nM. For the same molecule, in assay [2], the Kd was determined as 17.2 nM, the koff was found to be 0.0011 s⁻¹ and the kon is 64100 M⁻¹ s⁻¹.

B2: 3C6 scFv (scFv)
scFv: EVQLLESGGGLVQPGGSLRLSCAASGFTFSSYDMSWVRQAPGKGLEWVSAISSGGSSIYYADSVKGRFTISRDNSKNTLYLQMNSLRAEDTAVYYCARDVAWDMLGDFDYWGQGTLVTVSSGGGGSGGGGSGGGGSQSVLTQPPSASGTPGQRVTISCTGSSSNIGSNYVYWYQQLPGTAPKLLIYANSHRPSGVPDRFSGSKSGTSASLAISGLRSEDEADYYCGAWDDSLSAYVFGGGTKLTV
notes: The scFv comes from an HA-tagged human scFv phage library; It was expressed in the E. coli periplasm, purified on Ni-NTA and detected with anti-HA-HRP; also called 3C6 scFv clone
Take B2: the binding result in assay [3] was “binds”.
